# Measurements from US12679878B2, “CRF2 receptor agonists and their use in therapy” (SANOFI, priority 2020, dated 2026).
# Starred links: 1 amine or outer side, 2 acyl side, 3 side chain; linkers in the order of their positions; H or OH if unused. Non-standard residues stand in square brackets, D forms with d. Groups on a side chain read outwards from the residue. No end group written: not given here. *: point of attachment. C18 diacid = O=C(O)CCCCCCCCCCCCCCCCC(=O)*; γGlu = O=C(O)[C@H](CCC(=O)[*:2])N[*:1]; AEEA = NCCOCCOCC(=O)O; Aib = CC(C)(N)C(=O)O
# T1: CRF1R receptor (anti-target) (UniProt P34998 24-415, limits assumed)
# T1 sequence (looked up): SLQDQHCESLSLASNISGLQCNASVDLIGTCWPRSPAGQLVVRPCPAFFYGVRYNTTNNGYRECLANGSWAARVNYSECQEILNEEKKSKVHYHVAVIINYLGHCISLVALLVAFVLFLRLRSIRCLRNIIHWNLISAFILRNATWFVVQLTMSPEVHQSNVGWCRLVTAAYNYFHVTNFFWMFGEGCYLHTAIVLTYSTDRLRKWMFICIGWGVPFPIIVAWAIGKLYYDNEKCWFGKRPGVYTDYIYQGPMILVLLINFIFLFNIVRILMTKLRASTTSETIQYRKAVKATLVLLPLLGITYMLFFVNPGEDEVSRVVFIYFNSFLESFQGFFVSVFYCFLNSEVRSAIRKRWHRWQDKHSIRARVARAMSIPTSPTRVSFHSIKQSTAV
# B1: peptide of SEQ ID NO: 148 (peptide)
# peptide: IVLSLDVPIGLK([AEEA-AEEA-γGlu-C18 diacid])QILLKQERQKK[Aib]REQAETNKRILERV-NH2
# modifications: N-terminus assumed
# SMILES: CC[C@H](C)[C@H](N)C(=O)N[C@H](C(=O)N[C@@H](CC(C)C)C(=O)N[C@@H](CO)C(=O)N[C@@H](CC(C)C)C(=O)N[C@@H](CC(=O)O)C(=O)N[C@H](C(=O)N1CCC[C@H]1C(=O)N[C@H](C(=O)NCC(=O)N[C@@H](CC(C)C)C(=O)N[C@@H](CCCCNC(=O)COCCOCCNC(=O)COCCOCCNC(=O)CC[C@H](NC(=O)CCCCCCCCCCCCCCCCC(=O)O)C(=O)O)C(=O)N[C@@H](CCC(N)=O)C(=O)N[C@H](C(=O)N[C@@H](CC(C)C)C(=O)N[C@@H](CC(C)C)C(=O)N[C@@H](CCCCN)C(=O)N[C@@H](CCC(N)=O)C(=O)N[C@@H](CCC(=O)O)C(=O)N[C@@H](CCCNC(=N)N)C(=O)N[C@@H](CCC(N)=O)C(=O)N[C@@H](CCCCN)C(=O)N[C@@H](CCCCN)C(=O)NC(C)(C)C(=O)N[C@@H](CCCNC(=N)N)C(=O)N[C@@H](CCC(=O)O)C(=O)N[C@@H](CCC(N)=O)C(=O)N[C@@H](C)C(=O)N[C@@H](CCC(=O)O)C(=O)N[C@H](C(=O)N[C@@H](CC(N)=O)C(=O)N[C@@H](CCCCN)C(=O)N[C@@H](CCCNC(=N)N)C(=O)N[C@H](C(=O)N[C@@H](CC(C)C)C(=O)N[C@@H](CCC(=O)O)C(=O)N[C@@H](CCCNC(=N)N)C(=O)N[C@H](C(N)=O)C(C)C)[C@@H](C)CC)[C@@H](C)O)[C@@H](C)CC)[C@@H](C)CC)C(C)C)C(C)C
# B2: peptide of SEQ ID NO: 134 (peptide)
# peptide: IVLSLD[dV]PIKLK([AEEA-AEEA-γGlu-C18 diacid])QILLKQERQK[Aib]QREKAEKNKQILAQV-NH2
# modifications: N-terminus assumed
# SMILES: CC[C@H](C)[C@H](N)C(=O)N[C@H](C(=O)N[C@@H](CC(C)C)C(=O)N[C@@H](CO)C(=O)N[C@@H](CC(C)C)C(=O)N[C@@H](CC(=O)O)C(=O)N[C@@H](C(=O)N1CCC[C@H]1C(=O)N[C@H](C(=O)N[C@@H](CCCCN)C(=O)N[C@@H](CC(C)C)C(=O)N[C@@H](CCCCNC(=O)COCCOCCNC(=O)COCCOCCNC(=O)CC[C@H](NC(=O)CCCCCCCCCCCCCCCCC(=O)O)C(=O)O)C(=O)N[C@@H](CCC(N)=O)C(=O)N[C@H](C(=O)N[C@@H](CC(C)C)C(=O)N[C@@H](CC(C)C)C(=O)N[C@@H](CCCCN)C(=O)N[C@@H](CCC(N)=O)C(=O)N[C@@H](CCC(=O)O)C(=O)N[C@@H](CCCNC(=N)N)C(=O)N[C@@H](CCC(N)=O)C(=O)N[C@@H](CCCCN)C(=O)NC(C)(C)C(=O)N[C@@H](CCC(N)=O)C(=O)N[C@@H](CCCNC(=N)N)C(=O)N[C@@H](CCC(=O)O)C(=O)N[C@@H](CCCCN)C(=O)N[C@@H](C)C(=O)N[C@@H](CCC(=O)O)C(=O)N[C@@H](CCCCN)C(=O)N[C@@H](CC(N)=O)C(=O)N[C@@H](CCCCN)C(=O)N[C@@H](CCC(N)=O)C(=O)N[C@H](C(=O)N[C@@H](CC(C)C)C(=O)N[C@@H](C)C(=O)N[C@@H](CCC(N)=O)C(=O)N[C@H](C(N)=O)C(C)C)[C@@H](C)CC)[C@@H](C)CC)[C@@H](C)CC)C(C)C)C(C)C
# B3: peptide of SEQ ID NO: 149 (peptide)
# peptide: IVLSLD[dV]PIKLK([AEEA-AEEA-γGlu-C18 diacid])QILLKQERQKK[Aib]REQAETNKRILERV-NH2
# modifications: N-terminus assumed
# SMILES: CC[C@H](C)[C@H](N)C(=O)N[C@H](C(=O)N[C@@H](CC(C)C)C(=O)N[C@@H](CO)C(=O)N[C@@H](CC(C)C)C(=O)N[C@@H](CC(=O)O)C(=O)N[C@@H](C(=O)N1CCC[C@H]1C(=O)N[C@H](C(=O)N[C@@H](CCCCN)C(=O)N[C@@H](CC(C)C)C(=O)N[C@@H](CCCCNC(=O)COCCOCCNC(=O)COCCOCCNC(=O)CC[C@H](NC(=O)CCCCCCCCCCCCCCCCC(=O)O)C(=O)O)C(=O)N[C@@H](CCC(N)=O)C(=O)N[C@H](C(=O)N[C@@H](CC(C)C)C(=O)N[C@@H](CC(C)C)C(=O)N[C@@H](CCCCN)C(=O)N[C@@H](CCC(N)=O)C(=O)N[C@@H](CCC(=O)O)C(=O)N[C@@H](CCCNC(=N)N)C(=O)N[C@@H](CCC(N)=O)C(=O)N[C@@H](CCCCN)C(=O)N[C@@H](CCCCN)C(=O)NC(C)(C)C(=O)N[C@@H](CCCNC(=N)N)C(=O)N[C@@H](CCC(=O)O)C(=O)N[C@@H](CCC(N)=O)C(=O)N[C@@H](C)C(=O)N[C@@H](CCC(=O)O)C(=O)N[C@H](C(=O)N[C@@H](CC(N)=O)C(=O)N[C@@H](CCCCN)C(=O)N[C@@H](CCCNC(=N)N)C(=O)N[C@H](C(=O)N[C@@H](CC(C)C)C(=O)N[C@@H](CCC(=O)O)C(=O)N[C@@H](CCCNC(=N)N)C(=O)N[C@H](C(N)=O)C(C)C)[C@@H](C)CC)[C@@H](C)O)[C@@H](C)CC)[C@@H](C)CC)C(C)C)C(C)C
# B4: peptide of SEQ ID NO: 150 (peptide)
# peptide: IVLSLD[dV]PIGLK([AEEA-AEEA-γGlu-C18 diacid])QILLKQERQKK[Aib]RQQAETNKRILERV-NH2
# modifications: N-terminus assumed
# SMILES: CC[C@H](C)[C@H](N)C(=O)N[C@H](C(=O)N[C@@H](CC(C)C)C(=O)N[C@@H](CO)C(=O)N[C@@H](CC(C)C)C(=O)N[C@@H](CC(=O)O)C(=O)N[C@@H](C(=O)N1CCC[C@H]1C(=O)N[C@H](C(=O)NCC(=O)N[C@@H](CC(C)C)C(=O)N[C@@H](CCCCNC(=O)COCCOCCNC(=O)COCCOCCNC(=O)CC[C@H](NC(=O)CCCCCCCCCCCCCCCCC(=O)O)C(=O)O)C(=O)N[C@@H](CCC(N)=O)C(=O)N[C@H](C(=O)N[C@@H](CC(C)C)C(=O)N[C@@H](CC(C)C)C(=O)N[C@@H](CCCCN)C(=O)N[C@@H](CCC(N)=O)C(=O)N[C@@H](CCC(=O)O)C(=O)N[C@@H](CCCNC(=N)N)C(=O)N[C@@H](CCC(N)=O)C(=O)N[C@@H](CCCCN)C(=O)N[C@@H](CCCCN)C(=O)NC(C)(C)C(=O)N[C@@H](CCCNC(=N)N)C(=O)N[C@@H](CCC(N)=O)C(=O)N[C@@H](CCC(N)=O)C(=O)N[C@@H](C)C(=O)N[C@@H](CCC(=O)O)C(=O)N[C@H](C(=O)N[C@@H](CC(N)=O)C(=O)N[C@@H](CCCCN)C(=O)N[C@@H](CCCNC(=N)N)C(=O)N[C@H](C(=O)N[C@@H](CC(C)C)C(=O)N[C@@H](CCC(=O)O)C(=O)N[C@@H](CCCNC(=N)N)C(=O)N[C@H](C(N)=O)C(C)C)[C@@H](C)CC)[C@@H](C)O)[C@@H](C)CC)[C@@H](C)CC)C(C)C)C(C)C
# B5: peptide of SEQ ID NO: 152 (peptide)
# peptide: IVLSLDVPIKLK([AEEA-AEEA-γGlu-C18 diacid])QILLKQERQKK[Aib]REQAETNKRILERV-NH2
# modifications: N-terminus assumed
# SMILES: CC[C@H](C)[C@H](N)C(=O)N[C@H](C(=O)N[C@@H](CC(C)C)C(=O)N[C@@H](CO)C(=O)N[C@@H](CC(C)C)C(=O)N[C@@H](CC(=O)O)C(=O)N[C@H](C(=O)N1CCC[C@H]1C(=O)N[C@H](C(=O)N[C@@H](CCCCN)C(=O)N[C@@H](CC(C)C)C(=O)N[C@@H](CCCCNC(=O)COCCOCCNC(=O)COCCOCCNC(=O)CC[C@H](NC(=O)CCCCCCCCCCCCCCCCC(=O)O)C(=O)O)C(=O)N[C@@H](CCC(N)=O)C(=O)N[C@H](C(=O)N[C@@H](CC(C)C)C(=O)N[C@@H](CC(C)C)C(=O)N[C@@H](CCCCN)C(=O)N[C@@H](CCC(N)=O)C(=O)N[C@@H](CCC(=O)O)C(=O)N[C@@H](CCCNC(=N)N)C(=O)N[C@@H](CCC(N)=O)C(=O)N[C@@H](CCCCN)C(=O)N[C@@H](CCCCN)C(=O)NC(C)(C)C(=O)N[C@@H](CCCNC(=N)N)C(=O)N[C@@H](CCC(=O)O)C(=O)N[C@@H](CCC(N)=O)C(=O)N[C@@H](C)C(=O)N[C@@H](CCC(=O)O)C(=O)N[C@H](C(=O)N[C@@H](CC(N)=O)C(=O)N[C@@H](CCCCN)C(=O)N[C@@H](CCCNC(=N)N)C(=O)N[C@H](C(=O)N[C@@H](CC(C)C)C(=O)N[C@@H](CCC(=O)O)C(=O)N[C@@H](CCCNC(=N)N)C(=O)N[C@H](C(N)=O)C(C)C)[C@@H](C)CC)[C@@H](C)O)[C@@H](C)CC)[C@@H](C)CC)C(C)C)C(C)C
# B6: peptide of SEQ ID NO: 156 (peptide)
# peptide: IVLSLDVPIGLK([AEEA-AEEA-γGlu-C18 diacid])QILLKQERQKK[Aib]REQAETNAQILAQV-NH2
# modifications: N-terminus assumed
# SMILES: CC[C@H](C)[C@H](N)C(=O)N[C@H](C(=O)N[C@@H](CC(C)C)C(=O)N[C@@H](CO)C(=O)N[C@@H](CC(C)C)C(=O)N[C@@H](CC(=O)O)C(=O)N[C@H](C(=O)N1CCC[C@H]1C(=O)N[C@H](C(=O)NCC(=O)N[C@@H](CC(C)C)C(=O)N[C@@H](CCCCNC(=O)COCCOCCNC(=O)COCCOCCNC(=O)CC[C@H](NC(=O)CCCCCCCCCCCCCCCCC(=O)O)C(=O)O)C(=O)N[C@@H](CCC(N)=O)C(=O)N[C@H](C(=O)N[C@@H](CC(C)C)C(=O)N[C@@H](CC(C)C)C(=O)N[C@@H](CCCCN)C(=O)N[C@@H](CCC(N)=O)C(=O)N[C@@H](CCC(=O)O)C(=O)N[C@@H](CCCNC(=N)N)C(=O)N[C@@H](CCC(N)=O)C(=O)N[C@@H](CCCCN)C(=O)N[C@@H](CCCCN)C(=O)NC(C)(C)C(=O)N[C@@H](CCCNC(=N)N)C(=O)N[C@@H](CCC(=O)O)C(=O)N[C@@H](CCC(N)=O)C(=O)N[C@@H](C)C(=O)N[C@@H](CCC(=O)O)C(=O)N[C@H](C(=O)N[C@@H](CC(N)=O)C(=O)N[C@@H](C)C(=O)N[C@@H](CCC(N)=O)C(=O)N[C@H](C(=O)N[C@@H](CC(C)C)C(=O)N[C@@H](C)C(=O)N[C@@H](CCC(N)=O)C(=O)N[C@H](C(N)=O)C(C)C)[C@@H](C)CC)[C@@H](C)O)[C@@H](C)CC)[C@@H](C)CC)C(C)C)C(C)C
# Target: T1, CRF1R receptor (anti-target)
# Assay: cell-based or functional assay
"EC50 [nM] 0% HSA (cAMP, HTRF) [nM]",Emax (%) (100% = Sauvagine at 100 nM),Binder
> 100,2.6,B1
> 100,-8.6,B2
> 100,6.6,B3
> 100,7.2,B4
> 100,4.9,B5
> 100,4,B6
